{
  "source": "paper PMC7737771",
  "about": "“In‐depth interrogation of protein thermal unfolding data with MoltenProt” (Protein Science : A Publication of the Protein Society, 2020)",
  "binders": {"B1": {"name": "Δ91‐FATZ‐1 (domain or fragment, UniProt Q9NP98 92-299, looked up)", "chain": "PTVGGQLGTAGQGFSYSKSNGRGGSQAGGSGSAGQYGSDQQHHLGSGSGAGGTGGPAGQAGRGGAAGTAGVGETGSGDQAGGEGKHITVFKTYISPWERAMGVDPQQKMELGIDLLAYGAKAELPKYKSFNRTAMPYGGYEKASKRMTFQMPKFDLGPLLSEPLVLYNQNLSNRPSFNRTPIPWLSSGEPVDYNVDIGIPLDGETEEL", "notes": "FATZ-1 (calsarcin-2/myozenin-1) with a deletion of the 91 N-terminal residues; Detailed purification protocols are to be published elsewhere (Mlynek et al., in preparation); also called FATZ‐1 lacking the first 91 residues; calsarcin‐2"}, "B2": {"name": "α‐actinin‐2 rod domain (domain or fragment, UniProt P35609 274-746, looked up)", "chain": "AVNQENERLMEEYERLASELLEWIRRTIPWLENRTPEKTMQAMQKKLEDFRDYRRKHKPPKVQEKCQLEINFNTLQTKLRISNRPAFMPSEGKMVSDIAGAWQRLEQAEKGYEEWLLNEIRRLERLEHLAEKFRQKASTHETWAYGKEQILLQKDYESASLTEVRALLRKHEAFESDLAAHQDRVEQIAAIAQELNELDYHDAVNVNDRCQKICDQWDRLGTLTQKRREALERMEKLLETIDQLHLEFAKRAAPFNNWMEGAMEDLQDMFIVHSIEEIQSLITAHEQFKATLPEADGERQSIMAIQNEVEKVIQSYNIRISSSNPYSTVTMDELRTKWDKVKQLVPIRDQSLQEELARQHANERLRRQFAAQANAIGPWIQNKMEEIARSSIQITGALEDQMNQLKQYEHNIINYKNNIDKLEGDHQLIQEALVFDNKHTNYTMEHIRVGWELLLTTIARTINEVETQILTRD", "notes": "α-actinin-2, rod domain, residues 274-746; Detailed purification protocols are to be published elsewhere (Mlynek et al., in preparation); PDB 4D1E is the longer α-actinin-2 dimer, of which the rod domain is a stretch; also called rod domain of α‐actinin‐2"}},
  "key": {"[1]": {"target": "B2", "test": "cell-based or functional assay"}, "[2]": {"target": "B2", "test": "SEC-MALS; Superdex‐200 10/300 Increase; 20 mM Tris–HCl pH 7.5, 100 mM NaCl, 50 mM arginine, 50 mM glutamic acid, 0.5 mM PMSF, 1 mM EDTA, 1 mM β‐mercaptoethanol; 100 μl injected at 2-4 mg/ml; 20°C; 0.5 ml/min", "conditions": "both partners purified"}, "[3]": {"target": "the molecule itself", "test": "SEC-MALS; Superdex‐200 10/300 Increase; 20 mM Tris–HCl pH 7.5, 100 mM NaCl, 50 mM arginine, 50 mM glutamic acid, 0.5 mM PMSF, 1 mM EDTA, 1 mM β‐mercaptoethanol; 100 μl injected at 2-4 mg/ml; 20°C; 0.5 ml/min"}},
  "data": [
    {"binder": "B1", "values": [
      {"measurement": "ΔGu°′ of the complex against ΔGu°′ of the rod domain alone, thermal unfolding (NanoDSF)", "setting": "[1]", "value": "~2", "unit": "fold"},
      {"measurement": "stoichiometry N", "setting": "[2]", "value": "2 Δ91‐FATZ‐1 molecules per rod domain dimer"}
    ]},
    {"binder": "B2", "values": [
      {"measurement": "stoichiometry N", "setting": "[3]", "value": 2}
    ]}
  ]
}
